T1: Rv0081-S/Q-A S48A;S49A;S52A;Q53A (Mycobacterium tuberculosis) (UniProt P9WMI7)
T1 sequence: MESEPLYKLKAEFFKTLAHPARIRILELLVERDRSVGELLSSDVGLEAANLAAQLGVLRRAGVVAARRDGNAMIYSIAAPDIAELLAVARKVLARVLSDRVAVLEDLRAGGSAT

B1: Rv0081 transcription factor of Mycobacterium tuberculosis (natural protein)
chain: MESEPLYKLKAEFFKTLAHPARIRILELLVERDRSVGELLSSDVGLESSNLSQQLGVLRRAGVVAARRDGNAMIYSIAAPDIAELLAVARKVLARVLSDRVAVLEDLRAGGSAT

Legend:
[1] = molecular target: T1, Rv0081-S/Q-A S48A;S49A;S52A;Q53A (Mycobacterium tuberculosis); test: SPR
SEC-MALS = molecular target: the molecule itself; test: SEC-MALS

Molecule	Kd [1] [µM]	stoichiometry N (SEC-MALS)
ATCCGCACTATCTGATAAATTCTTCAACTCGTC (double strand) [ds-Wt]	19.6	–
B1	–	2

Reference: doi:10.1101/465575 (bioRxiv, 2018)
